The source of these data is patent publication US10526371B2, “Hydrogel-forming peptides” (Universiteit Gent, priority 2015, dated 2020).

“And” between values parts separate entries of the source, which are not always exact repeats. Equal values may be shown once. Square brackets hold non-standard residues; d marks the D form. Peptide text beside a SMILES is read from it. β3hW = N[C@H](CC(=O)O)Cc1c[nH]c2ccccc12; β3hF = N[C@H](CC(=O)O)Cc1ccccc1

Data set [1] relates to elastase. Nature of the data set: Proteolytic stability of hydrogels (elastase solution on top of hydrogel). It is filed as in vitro ADME. Conditions: for macroscopic aggregation / physical degradation: over 42 days. On the procedure:
(B) The proteolytic stability of the hydrogels was analyzed by placing an elastase solution (60 μM in 10 mM PBS) on top of the hydrogel. In all the stability experiments a total volume of 4 mL (gel+PBS solution with and without enzyme) was obtained. The addition of the enzyme solution on top of the hydrogel was set as the starting point of the gel-degradation experiments; B. At specific time-intervals (0 h, 24 h, 2 days, 3 days, 4 days, 5 days, 6 days, 7 days, 2 weeks, 3 weeks, etc.) the liquid portion on top of the hydrogel was removed using a pipette and the hydrogel's volume was estimated using following formula: VTotal−VLiquid portion=VHydrogel (1)
wherein VTotal is the total volume and remains at 4 mL and VLiquid portion is the volume measured of the liquid portion after each sampling interval. At each sampling interval the pH was also measured; C. A picture of the inverted glass tube, only containing the self-sustaining non-fluid-like hydrogel, was taken in order to assess the physical deformation of the hydrogel and volume-loss; D. The PBS, mQ or enzyme solution is gently replaced on top of the hydrogel using a pipette, allowing repetition of steps A-D. Between sampling-intervals the glass tubes were kept undisturbed at room temperature. The gel degradation time was defined as the period required for complete disintegration of the hydrogels into liquid under observation of the naked eye.
(C) In a next step, the stability and degradation profiles of the mixed α/β-hydrogels were investigated using this methodology. During the first hours after addition of the elastase to peptide SEQ ID NO 1 hydrogel, no apparent physical deformation was observed. The collected liquid portion (on top of the hydrogel) measured 3 mL (during the first 10 hours). […] In comparison to the α-peptide 1 hydrogel the degradation time of peptide SEQ ID NO 1 hydrogel was extended from 3.5 days to 5.5 days. However, the physical alteration of this hydrogel into an opaque structure was already observed after one day.

In data set [2] the test system is elastase. Nature of the data set: Enzymatic degradation study of peptides in non-gelating conditions. Type of data set: in vitro ADME. Conditions: peptide 350 μM, elastase 60 μM, 37° C., HPLC. On the procedure: The following biodegradation experiments were performed in order to assess biostability of peptides of the invention toward elastase, a prominent enzyme present in the subcutaneous compartment.
The following buffer was used to assay the proteolytic stability of the peptides towards elastase: 10 mM PBS at pH 7.2. First, a stock solution of elastase (60 μM in 10 mM PBS) was prepared. Peptides SEQ ID NO 1, 2 and 3 and reference α-peptide SEQ ID NO 23 were subjected to the degradation study and prepared as a stock solution of 350 μM in mQ water (with a resistivity of […]). Enzymatic degradation was carried out by incubation of peptide (900 μL, 350 μM) with the enzyme (150 μL, 60 μM) at 37° C. for 7 days. To preclude any pH-dependent effects on the enzyme's activity, the pH value was kept at pH 6.9±0.5 in all degradation experiments.
The enzyme concentration was selected such that the reference α-peptide SEQ ID NO 23 was completely degraded in less than 1 hour. In case of the α-peptide SEQ ID NO 23, aliquots (70 μL) were periodically taken at 0 min, 5 min, 10 min, 15 min, 20 min and 30 min, while for the mixed α/β-peptides aliquots (70 μL) were taken at 0 min, 20 min, 30 min, 1 h, 2 h, 5 h, 1 day, 2 days, 3 days, 4 days, 5 days and 6 days. 5 μL of 25% AcOH in water (v/v) were added and the degradation was monitored by HPLC analysis. After just 30 min of exposure to elastase, the reference α-peptide SEQ ID NO 23 was completely degraded. The enzymatic degradation of mixed α/β-peptides SEQ ID NO 1, SEQ ID NO 2 and SEQ ID NO 3 was remarkably slower and lasted several days. Mixed α/β-peptides SEQ ID NO 1 and SEQ ID NO 2 were completely consumed after 6 days whilst mixed α/β-peptide SEQ ID NO 1, SEQ ID NO 3 was degraded after 3 days.

A short description of data set [3]: Peptide self-assembly / gelation conditions. It is filed as physicochemical. As to the method: Peptide self-assembly was analyzed in i) a PBS solution (10 mM), ii) a PBS/mQ mixture (1:1 v:v, mQ water with a resistivity of […]) or iii) a NaCl aqueous solution (150 mM). The TFA salt of reference peptide SEQ NO. 23 (1 mg) was dissolved in 50 μl mQ water, followed by the addition of 50 μl PBS solution. This mixture was left to rest overnight, resulting in a 1% w/v hydrogel. The TFA salt of mixed α/β-peptides SEQ ID NO 1 and SEQ ID NO 2 (2 mg) was dissolved in mQ (100 μL) and PBS/mQ mixture (100 μL), respectively. […] The TFA salt of mixed α/β-peptide SEQ ID NO 3 (3 mg) was dissolved in PBS (100 μL) to probe gelation. All self-assembled gels were analyzed by circular dichroism (CD) and Fourier transform infrared (FT-IR) spectroscopy, as well as cryogenic transmission electron microscopy (Cryo-TEM).
(SEQ ID NO:22 (=10-mer)), 100 μl mQ water was added to 2 mg of TFA-salt of pure peptide, then vortexed and sonicated. As a result, a transparent self-supporting gel was formed immediately. A gelation condition of 2 w/v % in mQ water was found.
for H-Fβ^2hFEFQFK-NH2 (SEQ ID NO:19), 100 μl of PBS was added to 2 mg of TFA-salt of pure peptide, then vortexed and sonicated. After overnight resting, a self-supporting gel was formed. A gelation condition of 2 w/v % in PBS was determined.

Regarding `NCCCC[C@H](NC(=O)[C@H](Cc1ccccc1)NC(=O)C[C@H](Cc1ccccc1)NC(=O)[C@H](CCC(N)=O)NC(=O)[C@H](Cc1ccccc1)NC(=O)C[C@H](Cc1ccccc1)NC(=O)[C@H](CCC(=O)O)NC(=O)[C@@H](N)Cc1ccccc1)C(=O)O` [SEQ ID NO 1, H-Phe-Glu-β^3hPhe-Phe-Gln-β^3hPhe-Phe-Lys-OH] (H-FE[β3hF]FQ[β3hF]FK-OH), in the data set with elastase [1] (hydrogel with elastase, during the first 10 hours), the “collected liquid portion on top of the hydrogel” value is 3 mL. Also, the “time at which hydrogel changed into an opaque structure” value in the data set on elastase [1] (hydrogel, elastase 60 μM in 10 mM PBS on top) is listed as “one”. Besides, the “gel degradation time (hydrogel unstable/fluid-like)” value in the data set with elastase [1] (hydrogel, elastase 60 μM in 10 mM PBS on top, room temperature) stood at 5.5 days. For the same compound, in the data set on elastase [2], the “time to complete degradation by elastase” value was 6 days and 3 days.

As for `NCCCC[C@H](NC(=O)[C@H](Cc1ccccc1)NC(=O)C[C@H](Cc1ccccc1)NC(=O)[C@H](CCC(N)=O)NC(=O)[C@H](Cc1ccccc1)NC(=O)C[C@H](Cc1ccccc1)NC(=O)[C@H](CCC(=O)O)NC(=O)[C@@H](N)Cc1ccccc1)C(N)=O` [SEQ ID NO 2, H-Phe-Glu-β^3hPhe-Phe-Gln-β^3hPhe-Phe-Lys-NH2] (H-FE[β3hF]FQ[β3hF]FK-NH2), in the data set with elastase [1] (hydrogel with elastase, after 35 days), the “hydrogel volume relative to original volume” value is reported as “approximately half”. For the same compound, in the data set on elastase [1] (hydrogel with elastase), the “macroscopic aggregation / physical degradation” value is “no macroscopic aggregation was observed”. Moreover, the “time to complete degradation by elastase” value with elastase [2] was 6 days.

In the case of `NCCCC[C@H](NC(=O)[C@H](Cc1ccc(O)cc1)NC(=O)C[C@H](Cc1ccccc1)NC(=O)[C@H](CCC(N)=O)NC(=O)[C@H](Cc1ccc(O)cc1)NC(=O)C[C@H](Cc1ccccc1)NC(=O)[C@H](CCC(=O)O)NC(=O)[C@@H](N)Cc1ccccc1)C(N)=O` [SEQ ID NO 3, H-Phe-Glu-β^3hPhe-Tyr-Gln-β^3hPhe-Tyr-Lys-NH2] (H-FE[β3hF]YQ[β3hF]YK-NH2), in the data set with elastase [1] (hydrogel with elastase), the “physical stability: time without observable volume loss” value is given as “over 42 days” and the “macroscopic aggregation / physical degradation” value is “no significant physical degradation nor aggregation”. Besides, in the data set with elastase [2], the “time to complete degradation by elastase” value worked out at 3 days. In the case of “H-Phe-Glu-β^3hPhe-Phe-Lys-NH2 (H-FE[β3hF]FK-NH2; SMILES NCCCC[C@H](NC(=O)[C@H](Cc1ccccc1)NC(=O)C[C@H](Cc1ccccc1)NC(=O)[C@H](CCC(=O)O)NC(=O)[C@@H](N)Cc1ccccc1)C(N)=O) [SEQ ID NO 6]”, the “Gelation condition % (w/v)” value in data set [3] (in PBS) was 3% (PBS) % (w/v). Turning to “H-Phe-Glu-β^3hPhe-Phe-Lys-OH (H-FE[β3hF]FK-OH; SMILES NCCCC[C@H](NC(=O)[C@H](Cc1ccccc1)NC(=O)C[C@H](Cc1ccccc1)NC(=O)[C@H](CCC(=O)O)NC(=O)[C@@H](N)Cc1ccccc1)C(=O)O) [SEQ ID NO 7]”, in data set [3] (in mQ), the “Gelation condition % (w/v)” value is on record as 3% (mQ) % (w/v). As for “H-Phe-Glu-β^3hPhe-Phe-Lys-Phe-NH2 (H-FE[β3hF]FKF-NH2; SMILES NCCCC[C@H](NC(=O)[C@H](Cc1ccccc1)NC(=O)C[C@H](Cc1ccccc1)NC(=O)[C@H](CCC(=O)O)NC(=O)[C@@H](N)Cc1ccccc1)C(=O)N[C@@H](Cc1ccccc1)C(N)=O) [SEQ ID NO 11]”, the “Gelation condition % (w/v)” value in data set [3] (in PBS) is 2% (PBS) % (w/v).

As for “H-Phe-Glu-β^3hPhe-Phe-Lys-β^3hPhe-Phe-NH2 (H-FE[β3hF]FK[β3hF]F-NH2; SMILES NCCCC[C@H](NC(=O)[C@H](Cc1ccccc1)NC(=O)C[C@H](Cc1ccccc1)NC(=O)[C@H](CCC(=O)O)NC(=O)[C@@H](N)Cc1ccccc1)C(=O)N[C@H](CC(=O)N[C@@H](Cc1ccccc1)C(N)=O)Cc1ccccc1) [SEQ ID NO 16]”, the “Gelation condition % (w/v)” value in data set [3] (in mQ) was 2% (mQ) % (w/v). With “H-Phe-β^3hPhe-Glu-Phe-Gln-Phe-Lys-NH2 (H-F[β3hF]EFQFK-NH2; SMILES NCCCC[C@H](NC(=O)[C@H](Cc1ccccc1)NC(=O)[C@H](CCC(N)=O)NC(=O)[C@H](Cc1ccccc1)NC(=O)[C@H](CCC(=O)O)NC(=O)C[C@H](Cc1ccccc1)NC(=O)[C@@H](N)Cc1ccccc1)C(N)=O) [SEQ ID NO 19]”, the “time of gelation (self-supporting gel formed)” value in data set [3] (TFA salt, at its own gelation condition) is listed as “overnight”. Besides, the gelation condition in data set [3] (TFA salt, in PBS) stood at 2 w/v %. Also, the “Gelation condition % (w/v)” value in data set [3] (in PBS) is reported as 2% (PBS) % (w/v). For the compound “H-Trp-Glu-β^3hPhe-Phe-Gln-Trp-Lys-NH2 (H-WE[β3hF]FQWK-NH2; SMILES NCCCC[C@H](NC(=O)[C@H](Cc1c[nH]c2ccccc12)NC(=O)[C@H](CCC(N)=O)NC(=O)[C@H](Cc1ccccc1)NC(=O)C[C@H](Cc1ccccc1)NC(=O)[C@H](CCC(=O)O)NC(=O)[C@@H](N)Cc1c[nH]c2ccccc12)C(N)=O) [SEQ ID NO 15]”, in data set [3] (in PBS), the “Gelation condition % (w/v)” value was 2% (PBS) % (w/v). In the case of “H-Trp-Glu-β^3hTrp-Trp-Gln-Trp-Lys-NH2 (H-WE[β3hW]WQWK-NH2; SMILES NCCCC[C@H](NC(=O)[C@H](Cc1c[nH]c2ccccc12)NC(=O)[C@H](CCC(N)=O)NC(=O)[C@H](Cc1c[nH]c2ccccc12)NC(=O)C[C@H](Cc1c[nH]c2ccccc12)NC(=O)[C@H](CCC(=O)O)NC(=O)[C@@H](N)Cc1c[nH]c2ccccc12)C(N)=O) [SEQ ID NO 14]”, in data set [3] (in mQ/PBS 1:0.5), the “Gelation condition % (w/v)” value is reported as 1.5% (mQ/PBS 1:0.5) % (w/v).

As for “H-β^3hPhe-Phe-Glu-Phe-Gln-Phe-Lys-NH2 (H-[β3hF]FEFQFK-NH2; SMILES NCCCC[C@H](NC(=O)[C@H](Cc1ccccc1)NC(=O)[C@H](CCC(N)=O)NC(=O)[C@H](Cc1ccccc1)NC(=O)[C@H](CCC(=O)O)NC(=O)[C@H](Cc1ccccc1)NC(=O)C[C@@H](N)Cc1ccccc1)C(N)=O) [SEQ ID NO 17]”, the “Gelation condition % (w/v)” value in data set [3] (in PBS) is 2% (PBS) % (w/v). With “H-β^3hPhe-Phe-Glu-β^3hPhe-Phe-Lys-NH2 (H-[β3hF]FE[β3hF]FK-NH2; SMILES NCCCC[C@H](NC(=O)[C@H](Cc1ccccc1)NC(=O)C[C@H](Cc1ccccc1)NC(=O)[C@H](CCC(=O)O)NC(=O)[C@H](Cc1ccccc1)NC(=O)C[C@@H](N)Cc1ccccc1)C(N)=O) [SEQ ID NO 10]”, the “Gelation condition % (w/v)” value in data set [3] (in PBS) was 1% (PBS) % (w/v).
